Data reported in PMC5682286.

Assays:
[1] = molecular target: tES-rLuc, Renilla luciferase fused to the C-terminus of a histidine-tagged tES subunit (Archaeoglobus fulgidus | Renilla) (UniProt O29424); assay: pull-down + SEC; tES(+) and His-tagged tES-POI coexpressed in E. coli BL21(DE3); Ni-NTA by the His tag of the fusion subunit, then SEC (25 mM Tris-HCl, pH 8); ratio by gel densitometry of purified fractions
[2] = molecular target: tES-HRPc, truncated horseradish peroxidase fused to the C-terminus of a histidine-tagged tES subunit (Archaeoglobus fulgidus | horseradish) (UniProt O29424); assay: as above
[3] = molecular target: tES-GFPuv, GFPuv fused to the C-terminus of a histidine-tagged tES subunit (Archaeoglobus fulgidus | not stated) (UniProt O29424); assay: as above
[4] = molecular target: tES-GFPuv, GFPuv fused to the C-terminus of a histidine-tagged tES subunit (Archaeoglobus fulgidus | not stated) (UniProt O29424)

Substance: tES(+) thermostable exoshell subunit, net positive cavity (from UniProt O29424 1-164)
- stoichiometry N (tES subunits per tES-POI fusion subunit) [1]: 20
- stoichiometry N (tES subunits per tES-POI fusion subunit) [2]: 19
- stoichiometry N (tES subunits per tES-POI fusion subunit) [3]: 32

Substance: tES(+)F116H, pH-titratable exoshell subunit (from UniProt O29424 1-164)
- GFPuv fluorescence after in vitro folding; molar ratios of tES(+)F116H subunits to tES-GFPuv from 0:1 to 90:1, highest at 90:1 [4]: 100 fold
